The values that follow come from patent US7569748 (WISCONSIN ALUMNI RESEARCH FOUNDATION, dated 2009).

Data set [1] deals with TcbA (native, from W-14 broth).
In data set [2] the target is T1, TcdAiii (Photorhabdus luminescens strain W-14).
T1 construct: Processed peptide of TcdA; also called A2
T1 chain: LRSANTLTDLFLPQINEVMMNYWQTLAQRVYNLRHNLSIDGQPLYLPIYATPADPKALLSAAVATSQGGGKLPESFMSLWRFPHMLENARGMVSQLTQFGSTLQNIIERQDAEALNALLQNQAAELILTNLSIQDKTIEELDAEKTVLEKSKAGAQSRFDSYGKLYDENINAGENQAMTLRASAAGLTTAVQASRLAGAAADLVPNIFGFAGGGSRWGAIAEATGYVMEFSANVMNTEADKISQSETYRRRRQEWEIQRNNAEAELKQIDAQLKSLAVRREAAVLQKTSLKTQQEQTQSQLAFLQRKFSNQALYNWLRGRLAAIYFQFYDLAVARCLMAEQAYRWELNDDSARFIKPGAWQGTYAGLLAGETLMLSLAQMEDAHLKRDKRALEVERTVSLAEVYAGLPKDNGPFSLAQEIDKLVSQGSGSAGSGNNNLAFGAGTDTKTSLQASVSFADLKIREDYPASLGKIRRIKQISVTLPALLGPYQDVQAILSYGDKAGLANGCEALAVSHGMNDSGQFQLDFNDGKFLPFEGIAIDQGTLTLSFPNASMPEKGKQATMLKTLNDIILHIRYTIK
The data set is described as follows: native PAGE (one major band), gel filtration 860 kDa, 1 to 1 molar ratio by densitometry. On the technique in general: SEC sorts molecules by how far they enter the pores of the column.

For data set [3], the target named is T2, TcbAiii (Photorhabdus luminescens strain W-14).
T2 construct: Processed peptide of TcbA; also detected in E. coli preparations expressing tcbA constructs; also called B2; 58 kDa peptide of toxin B
T2 chain: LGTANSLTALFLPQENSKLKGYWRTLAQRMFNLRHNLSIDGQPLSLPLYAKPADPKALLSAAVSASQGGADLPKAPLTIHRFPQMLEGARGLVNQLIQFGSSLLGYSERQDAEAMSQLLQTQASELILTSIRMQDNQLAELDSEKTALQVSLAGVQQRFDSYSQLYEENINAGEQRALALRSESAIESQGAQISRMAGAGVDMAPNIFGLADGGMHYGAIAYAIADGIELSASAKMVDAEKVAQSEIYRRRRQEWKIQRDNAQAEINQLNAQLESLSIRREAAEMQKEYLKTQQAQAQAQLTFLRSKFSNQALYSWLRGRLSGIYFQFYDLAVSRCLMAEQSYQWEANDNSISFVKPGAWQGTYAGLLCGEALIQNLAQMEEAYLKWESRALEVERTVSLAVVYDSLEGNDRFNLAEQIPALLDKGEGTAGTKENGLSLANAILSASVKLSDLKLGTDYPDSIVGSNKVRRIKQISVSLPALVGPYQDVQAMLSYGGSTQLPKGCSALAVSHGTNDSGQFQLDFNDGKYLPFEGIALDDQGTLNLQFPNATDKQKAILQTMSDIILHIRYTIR
The data set is described as follows: native PAGE (one major band), gel filtration 860 kDa, same molar concentration.

For the molecule “58 kDa W-14 Photorhabdus metalloprotease”, in data set [1], the “cleavage of TcbA followed by SDS-PAGE densitometry” value is “the amount of peptides TcbAii and TcbAiii increased about 3-fold while the amount of TcbA peptide decreased proportionally”. For “38 kDa W-14 Photorhabdus metalloprotease”, in data set [1], the TcbA (% of total protein) after 38 kDa protease treatment (control 58) (% of total protein) stood at 18; the “cleavage of TcbA followed by SDS-PAGE densitometry” value is “the amount of peptides TcbAii and TcbAiii increased about 3-fold while the amount of TcbA peptide decreased proportionally”.

B1: TcdAii (other)
chain: LIGYNNQFSGRASQYVAPGTVSSMFSPAAYLTELYREARNLHASDSVYYLDTRRPDLKSMALSQQNMDIELSTLSLSNELLLESIKTESKLENYTKVMEMLSTFRPSGATPYHDAYENVREVIQLQDPGLEQLNASPAIAGLMHQASLLGINASISPELFNILTEEITEGNAEELYKKNFGNIEPASLAMPEYLKRYYNLSDEELSQFIGKASNFGQQEYSNNQLITPVVNSSDGTVKVYRITREYTTNAYQMDVELFPFGGENYRLDYKFKNFYNASYLSIKLNDKRELVRTEGAPQVNIEYSANITLNTADISQPFEIGLTRVLPSGSWAYAAAKFTVEEYNQYSFLLKLNKAIRLSRATELSPTILEGIVRSVNLQLDINTDVLGKVFLTKYYMQRYAIHAETALILCNAPISQRSYDNQPSQFDRLFNTPLLNGQYFSTGDEEIDLNSGSTGDWRKTILKRAFNIDDVSLFRLLKITDHDNKDGKIKNNLKNLSNLYIGKLLADIHQLTIDELDLLLIAVGEGKTNLSAISDKQLATLIRKLNTITSWLHTQKWSVFQLFIMTSTSYNKTLTPEIKNLLDTVYHGLQGFDKDKADLLHVMAPYIAATLQLSSENVAHSVLLWADKLQPGDGAMTAEKFWDWLNTKYTPGSSEAVETQEHIVQYCQALAQLEMVYHSTGINENAFRLFVTKPEMFGAATGAAPAHDALSLIMLTRFADWVNALGEKASSVLAAFEANSLTAEQLADAMNLDANLLLQASIQAQNHQHLPPVTPENAFSCWTSINTILQWVNVAQQLNVAPQGVSALVGLDYIQSMKETPTYAQWENAAGVLTAGLNSQQANTLHAFLDESRSAALSTYYIRQVAKAAAAIKSRDDLYQYLLIDNQVSAAIKTTRIAEAIASIQLYVNRALENVEENANSGVISRQFFIDWDKYNKRYSTWAGVSQLVYYPENYIDPTMRIGQTKMMDALLQSVSQSQLNADTVEDAFMSYLTSFEQVANLKVISAYHDNINNDQGLTYFIGLSETDAGEYYWRSVDHSKFNDGKFAANAWSEWHKIDCPINPYKSTIRPVIYKSRLYLLWLEQKEITKQTGNSKDGYQTETDYRYELKLAHIRYDGTWNTPITFDVNKKISELKLEKNRAPGLYCAGYQGEDTLLVMFYNQQDTLDSYKNASMQGLYIFADMASKDMTPEQSNVYRDNSYQQFDTNNVRRVNNRYAEDYEIPSSVSSRKDYGWGDYYLSMVYNGDIPTINYKAASSDLKIYISPKLRIIHNGYEGQKRNQCNLMNKYGKLGDKFIVYTSLGVNPNNSSNKLMFYPVYQYSGNTSGLNQGRLLFHRDTTYPSKVEAWIPGAKRSLTNQNAAIGDDYATDSLNKPDDLKQYIFMTDSKGTATDVSGPVEINTAISPAKVQIIVKAGGKEQTFTADKDVSIQPSPSFDEMNYQFNALEIDGSGLNFINNSASIDVTFTAFAEDGRKLGYESFSIPVTLKVSTDNALTLHHNENGAQYMQWQSYRTRLNTLFARQLVARATTGIDTILSMETQNIQEPQLGKGFYATFVIPPYNLSTHGDERWFKLYIKHVVDNNSHIIYSGQLTDTNINITLFIPLDDVPLNQDYHAKVYMTFKKSPSDGTWWGPHFVRDDKGIVTINPKSILTHFESVNVLNNISSEPMDFSGANSLYFWELFYYTPMLVAQRLLHEQNFDEANRWLKYVWSPSGYIVHGQIQNYQWNVRPLLEDTSWNSDPLDSVDPDAVAQHDPMHYKVSTFMRTLDLLIARGDHAYRQLERDTLNEAKMWYMQALHLLGDKPYLPLSTTWSDPRLDRAADITTQNAHDSAIVALRQNIPTPAPLS
notes: Processed peptide of TcdA; also called A1
Turning to B1, the binding result in data set [2] is “binds”.

B2: TcbAii (other)
chain: FIQGYSDLFGNRADNYAAPGSVASMFSPAAYLTELYREAKNLHDSSSIYYLDKRRPDLASLMLSQKNMDEEISTLALSNELCLAGIETKTGKSQDEVMDMLSTYRLSGETPYHHAYETVREIVHERDPGFRHLSQAPIVAAKLDPVTLLGISSHISPELYNLLIEEIPEKDEAALDTLYKTNFGDITTAQLMSPSYLARYYGVSPEDIAYVTTSLSHVGYSSDILVIPLVDGVGKMEVVRVTRTPSDNYTSQTNYIELYPQGGDNYLIKYNLSNSFGLDDFYLQYKDGSADWTEIAHNPYPDMVINQKYESQATIKRSDSDNILSIGLQRWHSGSYNFAAANFKIDQYSPKAFLLKMNKAIRLLKATGLSFATLERIVDSVNSTKSITVEVLNKVYRVKFYIDRYGISEETAAILANINISQQAVGNQLSQFEQLFNHPPLNGIRYEISEDNSKHLPNPDLNLKPDSTGDDQRKAVLKRAFQVNASELYQMLLITDRKEDGVIKNNLENLSDLYLVSLLAQIHNLTIAELNILLVICGYGDTNIYQITDDNLAKIVETLLWITQWLKTQKWTVTDLFLMTTATYSTTLTPEISNLTATLSSTLHGKESLIGEDLKRAMAPCFTSALHLTSQEVAYDLLLWIDQIQPAQITVDGFWEEVQTTPTSLKVITFAQVLAQLSLIYRRIGLSETELSLIVTQSSLLVAGKSILDHGLLTLMALEGFHTWVNGLGQHASLILAALKDGALTVTDVAQAMNKEESLLQMAANQVEKDLTKLTSWTQIDAILQWLQMSSALAVSPLDLAGMMALKYGIDHNYAAWQAAAAALMADHANQAQKKLDETFSKALCNYYINAVVDSAAGVRDRNGLYTYLLIDNQVSADVITSRIAEAIAGIQLYVNRALNRDEGQLASDVSTRQFFTDWERYNKRYSTWAGVSELVYYPENYVDPTQRIGQTKMMDALLQSINQSQLNADTVEDAFKTYLTSFEQVANLKVISAYHDNVNVDQGLTYFIGIDQAAPGTYYWRSVDHSKCENGKFAANAWGEWNKITCAVNPWKNIIRPVVYMSRLYLLWLEQQSKKSDDGKTTIYQYNLKLAHIRYDGSWNTPFTFDVTEKVKNYTSSTDAAESLGLYCTGYQGEDTLLVMFYSMQSSYSSYTDNNAPVTGLYIFADMSSDNMTNAQATNYWNNSYPQFDTVMADPDSDNKKVITRRVNNRYAEDYEIPSSVTSNSNYSWGDHSLTMLYGGSVPNITFESAAEDLRLSTNMALSIIHNGYAGTRRIQCNLMKQYASLGDKFIIYDSSFDDANRFNLVPLFKFGKDENSDDSICIYNENPSSEDKKWYFSSKDDNKTADYNGGTQCIDAGTSNKDFYYNLQEIEVISVTGGYWSSYKISNPININTGIDSAKVKVTVKAGGDDQIFTADNSTYVPQQPAPSFEEMIYQFNNLTIDCKNLNFIDNQAHIEIDFTATAQDGRFLGAETFIIPVTKKVLGTENVIALYSENNGVQYMQIGAYRTRLNTLFAQQLVSRANRGIDAVLSMETQNIQEPQLGAGTYVQLVLDKYDESIHGTNKSFAIEYVDIFKENDSFVIYQGELSETSQTVVKVFLSYFIEATGNKNHLWVRAKYQKETTDKILFDRTDEKDPHGWFLSDDHKTFSGLSSAQALKNDSEPMDFSGANALYFWELFYYTPMMMAHRLLQEQNFDAANHWFRYVWSPSGYIVDGKIAIYHWNVRPLEEDTSWNAQQLDSTDPDAVAQDDPMHYKVATFMATLDLLMARGDAAYRQLERDTLAEAKMWYTQALNLLGDEPQVMLSTTWANPTLGNAASKTTQQVRQQVLTQLRLNSRVKTPL
notes: Processed peptide of TcbA; also called B1; 201 kDa peptide
Regarding B2, the binding result in data set [3] was “binds”.
